Source: paper doi:10.1101/2025.11.04.686567, “Models for the architecture of the human inner kinetochore CCAN complex on centromeric α-satellite CENP-A nucleosome arrays”

Target: CCAN (CENP-C, CENP-LN, CENP-HIKM, CENP-OPQUR, CENP-TWSX) (Homo sapiens, UniProt Q03188;Q8N0S6;Q96H22;Q9H3R5;Q92674;Q9BS16;Q9NSP4;Q9BU64;Q6IPU0;Q7L2Z9;Q71F23;Q13 …)
Test: cryo-EM; mild cross-linking; 3.5 A; SEC on Superose 6 Increase or Agilent Bio SEC-5 1000A; buffer, salt, pH and temperature not given in the material
Conditions: protein: recombinant; copies: 1;1;1;1;1;1;1;1;1;1;1;1;1;1;1;1

B1: native alpha-satellite 171 bp DNA (dsDNA)
DNA 1: CCGCTTTGAGGCCTTCGTTGGAAACGGGAATATGTTCACATAAAAACTAGACAGAAGCATTCTCAGAAACTTCTATGTGATGTTTGCATTCAACTCATAGAGTTGAACATTCCTTTTCATAGAGCAGTTTTGAAACACTCTTTTTGTAGTATCTGGAATTGGACATTTGGA
DNA 2: TCCAAATGTCCAATTCCAGATACTACAAAAAGAGTGTTTCAAAACTGCTCTATGAAAAGGAATGTTCAACTCTATGAGTTGAATGCAAACATCACATAGAAGTTTCTGAGAATGCTTCTGTCTAGTTTTTATGTGAACATATTCCCGTTTCCAACGAAGGCCTCAAAGCGG
B1: binds.
